For the data set, the target named is T1, dCREB2-a (Drosophila melanogaster) (UniProt Q9VWW0).
T1 sequence: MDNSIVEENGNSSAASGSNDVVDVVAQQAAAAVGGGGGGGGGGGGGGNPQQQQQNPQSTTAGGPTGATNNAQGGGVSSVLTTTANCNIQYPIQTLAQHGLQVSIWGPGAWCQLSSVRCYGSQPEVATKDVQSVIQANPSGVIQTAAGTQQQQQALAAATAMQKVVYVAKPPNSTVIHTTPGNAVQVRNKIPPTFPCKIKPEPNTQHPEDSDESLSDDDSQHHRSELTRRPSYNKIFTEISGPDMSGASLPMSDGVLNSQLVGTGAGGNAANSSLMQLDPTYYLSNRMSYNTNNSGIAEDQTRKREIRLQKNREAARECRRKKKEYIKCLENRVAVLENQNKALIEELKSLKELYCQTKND
Description: cell_activity. The following applies: F9 cells, with PKA versus PKA alone.

We go through one substance from patent US6051559.

As to D(-71) CAT reporter CRE fragment, the activity turned out to be 5.4 fold.
